Results published in PMC8948145, “Piperonal synthase from black pepper (Piper nigrum) synthesizes a phenolic aroma compound, piperonal, as a CoA-independent catalysis” (Applied Biological Chemistry, 2022).

Test system: O=C(O)/C=C/c1ccc2c(c1)OCO2
Assay: GC-MS quantitation of piperonal, Michaelis-Menten fit
Assay type: biochemical, Piper nigrum
Settings: 50 µM to 1.6 mM substrate; no ATP, CoA-SH or NAD+; pH of the kinetic assay not printed in main text

Substance: PnPNS (piperonal synthase; PnMCHL, 3,4-methylenedioxycinnamic acid hydratase-lyase) (Piper nigrum)
- Km: 317.2 µM
- kcat: 2.7 s⁻¹
